Experimental data published in US20160272694A1.

Legend:
[1] = target: EDI200 (human); test: bridging ECL (biotin-EDI200/SulfoTag-EDI200) in NHP serum; antibody 7.81 ng/mL
[2] = target: EDI200 (human); test: bridging ECL in NHP serum; antibody 125 ng/mL, signal with 1 µg/mL free EDI200 over signal without
[3] = target: EDI200 (human); test: bridging ECL (biotin-EDI200/SulfoTag-EDI200) in NHP serum; antibody 31.25 ng/mL
[4] = target: EDI200 (human); test: bridging ECL in NHP serum; antibody 250 ng/mL with 1 µg/mL free EDI200
[5] = target: EDI200 (human); test: bridging ECL (biotin-EDI200/SulfoTag-EDI200) in NHP serum; antibody 125 ng/mL
[6] = target: EDI200 (human); test: bridging ECL in NHP serum; antibody 62.5 ng/mL, signal with 1 µg/mL free EDI200 over signal without
[7] = target: EDI200 (human); test: bridging ECL (biotin-EDI200/SulfoTag-EDI200) in NHP serum; antibody 15.63 ng/mL
[8] = target: EDI200 (human); test: bridging ECL in NHP serum; antibody 250 ng/mL, signal with 1 µg/mL free EDI200 over signal without
[9] = target: EDI200 (human); test: bridging ECL (biotin-EDI200/SulfoTag-EDI200) in NHP serum; antibody 250 ng/mL
[10] = target: EDI200 (human); test: bridging ECL in NHP serum; antibody 7.81 ng/mL, signal with 1 µg/mL free EDI200 over signal without
[11] = target: EDI200 (human); test: bridging ECL in NHP serum; antibody 125 ng/mL with 1 µg/mL free EDI200
[12] = target: EDI200 (human); test: bridging ECL in NHP serum; antibody 62.5 ng/mL with 1 µg/mL free EDI200
[13] = target: EDI200 (human); test: bridging ECL in NHP serum; antibody 31.25 ng/mL with 1 µg/mL free EDI200
[14] = target: EDI200 (human); test: bridging ECL in NHP serum; antibody 7.81 ng/mL with 1 µg/mL free EDI200
[15] = target: EDI200 (human); test: bridging ECL in NHP serum; antibody 15.63 ng/mL, signal with 1 µg/mL free EDI200 over signal without
[16] = target: EDI200 (human); test: bridging ECL in NHP serum; antibody 500 ng/mL, signal with 1 µg/mL free EDI200 over signal without
[17] = target: EDI200 (human); test: bridging ECL (biotin-EDI200/SulfoTag-EDI200) in NHP serum; antibody 62.5 ng/mL
[18] = target: EDI200 (human); test: bridging ECL in NHP serum; antibody 31.25 ng/mL, signal with 1 µg/mL free EDI200 over signal without
[19] = target: EDI200 (human); test: bridging ECL in NHP serum; antibody 15.63 ng/mL with 1 µg/mL free EDI200
[20] = target: EDI200 (human); test: bridging ECL in NHP serum; antibody 500 ng/mL with 1 µg/mL free EDI200
[21] = target: EDI200 (human); test: bridging ECL (biotin-EDI200/SulfoTag-EDI200) in NHP serum; antibody 500 ng/mL; plate NCO 129.4
[22] = target: EDI200 (human); test: bridging ECL in NHP serum; Renzo-1 500 ng/mL, signal with 1 µg/mL free EDI200 over signal without (Table 17)
[23] = target: EDI200 (human); test: bridging ECL (biotin-EDI200/SulfoTag-EDI200) in NHP serum; Renzo-1 250 ng/mL
[24] = target: EDI200 (human); test: bridging ECL in NHP serum; Renzo-1 31.25 ng/mL with 1 µg/mL free EDI200 as competitor
[25] = target: EDI200 (human); test: bridging ECL in NHP serum; Renzo-1 7.81 ng/mL with 1 µg/mL free EDI200 as competitor
[26] = target: EDI200 (human); test: bridging ECL in NHP serum; Renzo-1 7.81 ng/mL, signal with 1 µg/mL free EDI200 over signal without (Table 17)
[27] = target: EDI200 (human); test: bridging ECL (biotin-EDI200/SulfoTag-EDI200) in NHP serum; plate NCO 129.4
[28] = target: EDI200 (human); test: bridging ECL (biotin-EDI200/SulfoTag-EDI200) in NHP serum; Renzo-1 31.25 ng/mL
[29] = target: EDI200 (human); test: bridging ECL in NHP serum; Renzo-1 15.63 ng/mL, signal with 1 µg/mL free EDI200 over signal without (Table 17)
[30] = target: EDI200 (human); test: bridging ECL in NHP serum; Renzo-1 62.5 ng/mL with 1 µg/mL free EDI200 as competitor
[31] = target: EDI200 (human); test: bridging ECL in NHP serum; Renzo-1 250 ng/mL, signal with 1 µg/mL free EDI200 over signal without (Table 17)
[32] = target: EDI200 (human); test: bridging ECL in NHP serum; Renzo-1 250 ng/mL with 1 µg/mL free EDI200 as competitor
[33] = target: EDI200 (human); test: bridging ECL in NHP serum; Renzo-1 500 ng/mL with 1 µg/mL free EDI200 as competitor; plate NCO 129.4
[34] = target: EDI200 (human); test: bridging ECL in NHP serum; Renzo-1 62.5 ng/mL, signal with 1 µg/mL free EDI200 over signal without (Table 17)
[35] = target: EDI200 (human); test: bridging ECL (biotin-EDI200/SulfoTag-EDI200) in NHP serum; Renzo-1 15.63 ng/mL
[36] = target: EDI200 (human); test: bridging ECL (biotin-EDI200/SulfoTag-EDI200) in NHP serum; Renzo-1 62.5 ng/mL
[37] = target: EDI200 (human); test: bridging ECL in NHP serum; Renzo-1 125 ng/mL with 1 µg/mL free EDI200 as competitor
[38] = target: EDI200 (human); test: bridging ECL in NHP serum; Renzo-1 31.25 ng/mL, signal with 1 µg/mL free EDI200 over signal without (Table 17)
[39] = target: EDI200 (human); test: bridging ECL (biotin-EDI200/SulfoTag-EDI200) in NHP serum; Renzo-1 125 ng/mL
[40] = target: EDI200 (human); test: bridging ECL in NHP serum; Renzo-1 15.63 ng/mL with 1 µg/mL free EDI200 as competitor
[41] = target: EDI200 (human); test: bridging ECL (biotin-EDI200/SulfoTag-EDI200) in NHP serum; Renzo-1 500 ng/mL; plate NCO 129.4
[42] = target: EDI200 (human); test: bridging ECL in NHP serum; Renzo-1 125 ng/mL, signal with 1 µg/mL free EDI200 over signal without (Table 17)
[43] = target: EDI200 (human); test: bridging ECL (biotin-EDI200/SulfoTag-EDI200) in NHP serum; Renzo-1 7.81 ng/mL
[44] = target: hEDAR-mFc (human) (UniProt Q9UNE0); test: sandwich ELISA: hEDAR-mFc coated, anti-human IgG (Fc) CH2-HRP detection; EDA-A1 with hFc, nominal 12.5 ng/mL, batch 7
[45] = target: hEDAR-mFc (human) (UniProt Q9UNE0); test: sandwich ELISA: hEDAR-mFc coated, anti-human IgG (Fc) CH2-HRP detection; EDA-A1 100 ng/mL, batch 5
[46] = target: hEDAR-mFc (human) (UniProt Q9UNE0); test: sandwich ELISA: hEDAR-mFc coated, anti-human IgG (Fc) CH2-HRP detection; EDA-A1 100 ng/mL, batch 7
[47] = target: hEDAR-mFc (human) (UniProt Q9UNE0); test: sandwich ELISA: hEDAR-mFc coated, anti-human IgG (Fc) CH2-HRP detection; EDA-A1 with hFc, nominal 100 ng/mL, batch 7
[48] = target: hEDAR-mFc (human) (UniProt Q9UNE0); test: sandwich ELISA: hEDAR-mFc coated, anti-human IgG (Fc) CH2-HRP detection; EDA-A1 12.5 ng/mL, batch 7
[49] = target: hEDAR-mFc (human) (UniProt Q9UNE0); test: sandwich ELISA: hEDAR-mFc coated, anti-human IgG (Fc) CH2-HRP detection; EDA-A1 with hFc, nominal 6.25 ng/mL, batch 7
[50] = target: hEDAR-mFc (human) (UniProt Q9UNE0); test: sandwich ELISA: hEDAR-mFc coated, anti-human IgG (Fc) CH2-HRP detection; EDA-A1 100 ng/mL with hFc 100 ng/mL, batch 5
[51] = target: hEDAR-mFc (human) (UniProt Q9UNE0); test: sandwich ELISA: hEDAR-mFc coated, anti-human IgG (Fc) CH2-HRP detection; EDA-A1 with hFc, nominal 3.13 ng/mL, batch 7
[52] = target: hEDAR-mFc (human) (UniProt Q9UNE0); test: sandwich ELISA: hEDAR-mFc coated, anti-human IgG (Fc) CH2-HRP detection; EDA-A1 50 ng/mL, batch 7
[53] = target: hEDAR-mFc (human) (UniProt Q9UNE0); test: sandwich ELISA: hEDAR-mFc coated, anti-human IgG (Fc) CH2-HRP detection; EDA-A1 6.25 ng/mL, batch 7
[54] = target: hEDAR-mFc (human) (UniProt Q9UNE0); test: sandwich ELISA: hEDAR-mFc coated, anti-human IgG (Fc) CH2-HRP detection; EDA-A1 25 ng/mL, batch 7
[55] = target: hEDAR-mFc (human) (UniProt Q9UNE0); test: sandwich ELISA: hEDAR-mFc coated, anti-human IgG (Fc) CH2-HRP detection; EDA-A1 with hFc, nominal 25 ng/mL, batch 7
[56] = target: hEDAR-mFc (human) (UniProt Q9UNE0); test: sandwich ELISA: hEDAR-mFc coated, anti-human IgG (Fc) CH2-HRP detection; EDA-A1 3.13 ng/mL, batch 7
[57] = target: hEDAR-mFc (human) (UniProt Q9UNE0); test: sandwich ELISA: hEDAR-mFc coated, anti-human IgG (Fc) CH2-HRP detection; EDA-A1 with hFc, nominal 50 ng/mL, batch 7

In the case of mouse anti-human CD106 IgG1 antibody, the Mean Signal [1] is reported as 85 signal (ECL), the Drug/Non-drug Ratio [2] is reported as 0.93 and the Mean Signal [3] is reported as 81 signal (ECL). The Mean Signal [4] was 80 signal (ECL), the Mean Signal [5] was 82 signal (ECL) and the Drug/Non-drug Ratio [6] was 0.94. The Mean Signal [7] was 81 signal (ECL), the Drug/Non-drug Ratio [8] was 0.96 and the Mean Signal [9] was 83 signal (ECL). For the same substance, the Drug/Non-drug Ratio [10] was 0.93, the Mean Signal [11] was 76 signal (ECL) and the Mean Signal [12] was 76 signal (ECL). For the same substance, the Mean Signal [13] was 76 signal (ECL), the Mean Signal [14] was 80 signal (ECL) and the Drug/Non-drug Ratio [15] was 0.91. For the same substance, the Drug/Non-drug Ratio [16] was 0.95, the Mean Signal [17] was 81 signal (ECL) and the Drug/Non-drug Ratio [18] was 0.93. For the same substance, the Mean Signal [19] was 74 signal (ECL), the Mean Signal [20] was 81 signal (ECL) and the Mean Signal [21] was 86 signal (ECL).

“Mouse monoclonal (Renzo-1) to EDA (antibody)” was tested, and the Drug/Non-drug Ratio [22] was 0.18, the Mean Signal [23] was 495 signal (ECL) and the Mean Signal [24] was 80 signal (ECL). For the same substance, the Mean Signal [25] was 81 signal (ECL), the Drug/Non-drug Ratio [26] was 0.91 and the sensitivity (lowest antibody concentration with mean signal above the plate NCO) [27] was 62.5 ng/mL. The Mean Signal [28] was 129 signal (ECL), the Drug/Non-drug Ratio [29] was 0.77 and the Mean Signal [30] was 75 signal (ECL). The Drug/Non-drug Ratio [31] was 0.18, the Mean Signal [32] was 89 signal (ECL) and the Mean Signal [33] was 171 signal (ECL). For the same substance, the Drug/Non-drug Ratio [34] was 0.43, the Mean Signal [35] was 102 signal (ECL) and the Mean Signal [36] was 176 signal (ECL). For the same substance, the Mean Signal [37] was 85 signal (ECL), the Drug/Non-drug Ratio [38] was 0.62 and the Mean Signal [39] was 306 signal (ECL). For the same substance, the Mean Signal [40] was 78 signal (ECL), the Mean Signal [41] was 949 signal (ECL) and the Drug/Non-drug Ratio [42] was 0.28. The Mean Signal [43] was 89 signal (ECL).

“Recombinant human Ectodysplasin A1 (from UniProt Q92838 160-391) (ligand)” was tested, and the Mean OD [44] was 0.15 OD, the Mean Conc. (read as EDI200 from the standard curve) [45] was 5.43 ng/mL and the Mean OD [45] was 0.292 OD. The Mean Conc. (read as EDI200 from the standard curve) [46] was 6.14 ng/mL, the Mean OD [46] was 0.316 OD and the Mean Conc. (read as EDI200 from the standard curve) [47] was 4.77 ng/mL. For the same substance, the Mean OD [47] was 0.275 OD, the Mean OD [48] was 0.14 OD and the Mean OD [49] was 0.125 OD. For the same substance, the Mean Conc. (read as EDI200 from the standard curve) [50] was 5.34 ng/mL, the Mean OD [50] was 0.289 OD and the Mean OD [51] was 0.121 OD. The Mean OD [52] was 0.234 OD, the Mean OD [53] was 0.119 OD and the Mean OD [54] was 0.18 OD. For the same substance, the Mean OD [55] was 0.18 OD, the Mean OD [56] was 0.116 OD and the Mean OD [57] was 0.214 OD.
